53 variants from the Human Domainome abundance scans (Beltran et al. 2025) can be followed below.

To fix the notation:
B1: Histone-lysine N-methyltransferase SETD2, residues 2382 to 2430; numbered along this chain, Q9BYW2 (parent)
chain: SPPKPKTIVLPPNWKTARDPEGKIYYYHVITRQTQWDPPTWESPGDDAS

± gives the uncertainty stated by the source.

In this data set the parent is B1. Description: abundance fitness (aPCA) (normalised: wild type 0, dead -1); higher = more abundant; growth selection in yeast, the domain comes from the species named. Particulars: Homo sapiens.
With SPPKPKTIVLPPNWKRARDPEGKIYYYHVITRQTQWDPPTWESPGDDAS, the abundance fitness was -0.052 ± 0.045.
With SPPKPKTIVLPPNWKTQRDPEGKIYYYHVITRQTQWDPPTWESPGDDAS the figure was -0.845 ± 0.28.
With SPPKPKTIVLPPNWKTMRDPEGKIYYYHVITRQTQWDPPTWESPGDDAS, the abundance fitness was -0.024 ± 0.08.
With SPPKPKTIVLPPNWKTDRDPEGKIYYYHVITRQTQWDPPTWESPGDDAS the figure was -0.092 ± 0.054.
With SPPKPKTIVLPPNWKTGRDPEGKIYYYHVITRQTQWDPPTWESPGDDAS the figure was -0.022 ± 0.034.
With SPPKPKTIVLPPNWKTLRDPEGKIYYYHVITRQTQWDPPTWESPGDDAS the figure was -0.212 ± 0.066; with SPPKPKTIVLPPNWKTYRDPEGKIYYYHVITRQTQWDPPTWESPGDDAS, -0.128 ± 0.07; with SPPKPKTIVLPPNWKTNRDPEGKIYYYHVITRQTQWDPPTWESPGDDAS, 0.038 ± 0.14.
As to SPPKPKTIVLPPNWKTKRDPEGKIYYYHVITRQTQWDPPTWESPGDDAS, the abundance fitness was -0.131 ± 0.1.
With SPPKPKTIVLPPNWKTVRDPEGKIYYYHVITRQTQWDPPTWESPGDDAS the figure was -0.242 ± 0.045.
With SPPKPKTIVLPPNWKTHRDPEGKIYYYHVITRQTQWDPPTWESPGDDAS the figure was -0.728 ± 0.41; with SPPKPKTIVLPPNWKTTRDPEGKIYYYHVITRQTQWDPPTWESPGDDAS, -0.217 ± 0.074.
With SPPKPKTIVLPPNWKTERDPEGKIYYYHVITRQTQWDPPTWESPGDDAS the figure was -0.301 ± 0.061; with SPPKPKTIVLPPNWKTRRDPEGKIYYYHVITRQTQWDPPTWESPGDDAS, 0.023 ± 0.036.
As to SPPKPKTIVLPPNWKTCRDPEGKIYYYHVITRQTQWDPPTWESPGDDAS, the abundance fitness is -0.146 ± 0.078.
With SPPKPKTIVLPPNWKTIRDPEGKIYYYHVITRQTQWDPPTWESPGDDAS the figure was -0.184 ± 0.05; with SPPKPKTIVLPPNWKTWRDPEGKIYYYHVITRQTQWDPPTWESPGDDAS, -0.77 ± 0.13; with SPPKPKTIVLPPNWKTPRDPEGKIYYYHVITRQTQWDPPTWESPGDDAS, -0.747 ± 0.042.
SPPKPKTIVLPPNWKTSRDPEGKIYYYHVITRQTQWDPPTWESPGDDAS: the abundance fitness was -0.155 ± 0.058.
Regarding SPPKPKTIVLPPNWKTFRDPEGKIYYYHVITRQTQWDPPTWESPGDDAS, the abundance fitness was -0.543 ± 0.15.
With SPPKPKTIVLPPNWQTARDPEGKIYYYHVITRQTQWDPPTWESPGDDAS the figure was -0.291 ± 0.26; with SPPKPKTIVLPPNWRTARDPEGKIYYYHVITRQTQWDPPTWESPGDDAS, 0.11 ± 0.39; with SPPKPKTIVLPPNWHTARDPEGKIYYYHVITRQTQWDPPTWESPGDDAS, -0.153 ± 0.41.
SPPKPKTIVLPPNSKTARDPEGKIYYYHVITRQTQWDPPTWESPGDDAS: the abundance fitness is -0.925 ± 0.1.
With SPPKPKTIVLPPNYKTARDPEGKIYYYHVITRQTQWDPPTWESPGDDAS the figure was -0.566 ± 0.42.
With SPPKPKTIVLPPNMKTARDPEGKIYYYHVITRQTQWDPPTWESPGDDAS the figure was -0.721 ± 0.2; with SPPKPKTIVLPPNQKTARDPEGKIYYYHVITRQTQWDPPTWESPGDDAS, -0.763 ± 0.24.
As for SPPKPKTIVLPPNEKTARDPEGKIYYYHVITRQTQWDPPTWESPGDDAS, the abundance fitness was -0.868 ± 0.078.
With SPPKPKTIVLPPNPKTARDPEGKIYYYHVITRQTQWDPPTWESPGDDAS the figure was -1.03 ± 0.32; with SPPKPKTIVLPPNDKTARDPEGKIYYYHVITRQTQWDPPTWESPGDDAS, -0.74 ± 0.36; with SPPKPKTIVLPPNVKTARDPEGKIYYYHVITRQTQWDPPTWESPGDDAS, -0.882 ± 0.097.
With SPPKPKTIVLPPNHKTARDPEGKIYYYHVITRQTQWDPPTWESPGDDAS the figure was -0.615 ± 0.22; with SPPKPKTIVLPPNCKTARDPEGKIYYYHVITRQTQWDPPTWESPGDDAS, -1.02 ± 0.3.
With SPPKPKTIVLPPNGKTARDPEGKIYYYHVITRQTQWDPPTWESPGDDAS the figure was -0.855 ± 0.086; with SPPKPKTIVLPPNAKTARDPEGKIYYYHVITRQTQWDPPTWESPGDDAS, -0.865 ± 0.054.
As to SPPKPKTIVLPPNTKTARDPEGKIYYYHVITRQTQWDPPTWESPGDDAS, the abundance fitness was -0.935 ± 0.19.
For the variant SPPKPKTIVLPPNLKTARDPEGKIYYYHVITRQTQWDPPTWESPGDDAS, the abundance fitness is -0.925 ± 0.06.
With SPPKPKTIVLPPPWKTARDPEGKIYYYHVITRQTQWDPPTWESPGDDAS the figure was -0.692 ± 0.084.
With SPPKPKTIVLPPMWKTARDPEGKIYYYHVITRQTQWDPPTWESPGDDAS the figure was 0.064 ± 0.094; with SPPKPKTIVLPPSWKTARDPEGKIYYYHVITRQTQWDPPTWESPGDDAS, -0.362 ± 0.078; with SPPKPKTIVLPPYWKTARDPEGKIYYYHVITRQTQWDPPTWESPGDDAS, 0.107 ± 0.075.
With SPPKPKTIVLPPFWKTARDPEGKIYYYHVITRQTQWDPPTWESPGDDAS, the abundance fitness turned out to be 0.127 ± 0.082.
With SPPKPKTIVLPPGWKTARDPEGKIYYYHVITRQTQWDPPTWESPGDDAS the figure was -0.191 ± 0.055; with SPPKPKTIVLPPEWKTARDPEGKIYYYHVITRQTQWDPPTWESPGDDAS, -0.61 ± 0.15.
With SPPKPKTIVLPPWWKTARDPEGKIYYYHVITRQTQWDPPTWESPGDDAS the figure was -0.144 ± 0.097; with SPPKPKTIVLPPLWKTARDPEGKIYYYHVITRQTQWDPPTWESPGDDAS, -0.039 ± 0.049; with SPPKPKTIVLPPAWKTARDPEGKIYYYHVITRQTQWDPPTWESPGDDAS, -0.581 ± 0.067.
With SPPKPKTIVLPPVWKTARDPEGKIYYYHVITRQTQWDPPTWESPGDDAS the figure was -0.523 ± 0.075; with SPPKPKTIVLPPHWKTARDPEGKIYYYHVITRQTQWDPPTWESPGDDAS, -0.052 ± 0.039.
With SPPKPKTIVLPPQWKTARDPEGKIYYYHVITRQTQWDPPTWESPGDDAS, the abundance fitness was -0.148 ± 0.13.
Consider SPPKPKTIVLPPCWKTARDPEGKIYYYHVITRQTQWDPPTWESPGDDAS, for which the abundance fitness was -0.292 ± 0.056.
With SPPKPKTIVLPPDWKTARDPEGKIYYYHVITRQTQWDPPTWESPGDDAS the figure was -0.059 ± 0.075.
With SPPKPKTIVLPPTWKTARDPEGKIYYYHVITRQTQWDPPTWESPGDDAS the figure was -0.123 ± 0.078.
